Substrate in data set [1]: C[C@H](N)C(=O)O
Put plainly: purified protein. Particulars: oxidative deamination, 1 mM NAD+, 100 mM NaHCO3 pH 10, 25 °C.

Substrate in data set [2]: O=CO
Briefly: purified protein. Conditions: 3 mM NAD+, 25 mM potassium phosphate pH 7.5, 25 °C.

For orientation: Km means the substrate concentration at which the rate is half of its maximum. What is called kcat is the number of substrate molecules converted per active site and unit of time at saturation.

B1: AlaDH-FDH-His fusion protein (AlaDH domain) (Halomonas elongata DSM 2581) (protein)
chain: MKIAVPKEIKNHEYRVALTPSGARELVGRGHDVIVQAAAGEGAGFSDADFEAAGARLEADVAKLWDDAELILKVKEPQAEEVARLSAGQTLFTYLHLAAEESLTKGLLDSGATCIAYETITAPEGGLPLLAPMSTVAGRMAVQAGAHSLEKAQGGAGILLPGVPGVAPARVTVIGGGVVGENAARMALGLGAEVTVLDKSIPRLETLDDRYQGRMKTVFSTADALEEAVRESDLIIGAVLVPGAAAPKLITRDMLSDMKPGSVLVDVAIDQGGCFETSKPTTHAEPTYVVDGVVHYCVANMPGAVARTSTQALTNATLPFVVALADKGWQKALADDDHFAAGLNVHDGKLTYRAVAEAFGLEYVEAASLIG
As for B1, in the data set “purified protein [1]”, the Km was determined as 11.4 ± 1.5 mM and the turnover number (kcat) was found to be 1.7 s⁻¹.

B2: AlaDH-FDH-His fusion protein (FDH domain) ([Candida] boidinii) (protein)
chain: MKIVLVLYDAGKHAADEEKLYGCTENKLGIANWLKDQGHELITTSDKEGETSELDKHIPDADIIITTPFHPAYITKERLDKAKNLKLVVVAGVGSDHIDLDYINQTGKKISVLEVTGSNVVSVAEHVVMTMLVLVRNFVPAHEQIINHDWEVAAIAKDAYDIEGKTIATIGAGRIGYRVLERLLPFNPKELLYYDYQALPKEAEEKVGARRVENIEELVAQADIVTVNAPLHAGTKGLINKELLSKFKKGAWLVNTARGAICVAEDVAAALESGQLRGYGGDVWFPQPAPKDHPWRDMRNKYGAGNAMTPHYSGTTLDAQTRYAEGTKNILESFFTGKFDYRPQDIILLNGEYVTKAYGKHDKK
For the protein B2, in “purified protein [2]”, the Michaelis constant (Km) amounted to 7.8 ± 1.4 mM and the turnover number (kcat) is 0.7 s⁻¹.

B3: WT FDH (CbFDH) ([Candida] boidinii) (protein)
chain: MKIVLVLYDAGKHAADEEKLYGCTENKLGIANWLKDQGHELITTSDKEGETSELDKHIPDADIIITTPFHPAYITKERLDKAKNLKLVVVAGVGSDHIDLDYINQTGKKISVLEVTGSNVVSVAEHVVMTMLVLVRNFVPAHEQIINHDWEVAAIAKDAYDIEGKTIATIGAGRIGYRVLERLLPFNPKELLYYDYQALPKEAEEKVGARRVENIEELVAQADIVTVNAPLHAGTKGLINKELLSKFKKGAWLVNTARGAICVAEDVAAALESGQLRGYGGDVWFPQPAPKDHPWRDMRNKYGAGNAMTPHYSGTTLDAQTRYAEGTKNILESFFTGKFDYRPQDIILLNGEYVTKAYGKHDKK
On to B3, for which, in “purified protein [2]”, the Km is 5.0 ± 1.0 mM and the kcat came to 1.3 s⁻¹.

Values taken from article PMC9828552.
